IntAct's records for PubMed 17289582

Target: fap24_human FAAP24 (UniProt Q9BTP7)
Chain of UniProt Q9BTP7 (Q9BTP7 whole entry): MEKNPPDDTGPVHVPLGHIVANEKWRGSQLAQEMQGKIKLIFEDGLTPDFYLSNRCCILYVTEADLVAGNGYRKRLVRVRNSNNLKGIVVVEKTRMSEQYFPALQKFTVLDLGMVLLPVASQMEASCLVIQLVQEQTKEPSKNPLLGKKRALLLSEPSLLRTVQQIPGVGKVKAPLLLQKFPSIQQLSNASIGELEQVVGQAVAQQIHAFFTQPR

effect of a mutation on the interaction: with no effect
Substance: Fanconi anemia group M protein (Homo sapiens), Q8IYD8 K117R
